Measured values published in patent US20260001953A1 (TWIST BIOSCIENCE, published 2026).

B1: CD117-2 (antibody, human IgG1, kappa, V domains shown)
VH: EVQLLESGVGLVQPGGSLRLSCAASGFSFGSYAMSWVRQAPGKGLEWVSSISGSGGTTYYADSVKGRFTISRDNSKNTLYLQMNSLRAEDTAVYYCARDPDDYGDYYFDYWGQGTLVTVSS
VL: DIQMTQSPSSLSASVGDRVTITCRASQSIGEYLNWYQQKPGKAPKLLIYATSSLQRGVPSRFSGSGSGTDFTLTISSLQPEDFATYYCQQSHTTPYTFGGGTKVEIKR
notes: detected with anti-human IgG in FACS
B2: SIGLEC-8-27 (antibody, human IgG1, kappa, V domains shown)
VH: EVQLLESGGGLVQPGGSLRLSCAASGFTFSNHVMSWVRQAPGKGLEWVSAISGSGASTYYADSVKGRFTISRDNSKNTLYLQMNSLRAEDTAVYYCARAPIAVAGTADHWGQGTLVTVSS
VL: DIQMTQSPSSLSASVGDRVTITCRASQSIGSDLNWYQQKPGKAPKLLIYGASRLESGVPSRFSGSGSGTDFTLTISSLQPEDFATYYCQQTFTNTPLTFGGGTKVEIKR
notes: tested as expressed and purified mAb

Assays:
[1] = biological target: T1, Cluster of differentiation 117 (CD117), antigen of epitope binning and ELISA (UniProt P10721 26-520, limits assumed); test: Carterra SPR, human CD117
T1 construct: also called tyrosine-protein kinase KIT; mast/stem cell growth factor receptor (SCFR)
T1 sequence (P10721 26-520 limits assumed): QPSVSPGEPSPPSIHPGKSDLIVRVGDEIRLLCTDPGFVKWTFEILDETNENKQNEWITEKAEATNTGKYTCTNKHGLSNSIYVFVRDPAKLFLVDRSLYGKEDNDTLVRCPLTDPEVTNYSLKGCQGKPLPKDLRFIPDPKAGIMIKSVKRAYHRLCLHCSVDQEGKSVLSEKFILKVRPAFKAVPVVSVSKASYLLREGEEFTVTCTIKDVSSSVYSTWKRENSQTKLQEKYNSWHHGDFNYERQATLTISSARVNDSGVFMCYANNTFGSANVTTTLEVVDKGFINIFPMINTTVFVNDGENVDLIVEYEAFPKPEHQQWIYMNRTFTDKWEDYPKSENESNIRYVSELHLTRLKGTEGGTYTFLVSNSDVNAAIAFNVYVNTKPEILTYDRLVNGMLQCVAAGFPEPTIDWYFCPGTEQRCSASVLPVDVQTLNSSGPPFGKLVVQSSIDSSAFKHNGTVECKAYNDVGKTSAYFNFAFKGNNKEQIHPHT
Method: (§1) To further evaluate the antibodies discovered during the screens, 21 clones were selected for detailed characterization and were analyzed for target binding kinetics by a Carterra SPR instrument. The binding kinetics of the anti-CD117 antibodies for human CD117, cynomolgus monkey CD117, and murine CD117 are shown in FIG. 29A-29B.

[2] = biological target: T2, CD117 transiently expressed on Expi293 cells (UniProt P10721 26-976, limits assumed); test: flow cytometry titration on CD117 transient cells and on parental Expi293
T2 construct: whole, on cells; Two cassettes are described (P2A mVenus and direct mVenus fusion); also called CD117 transient cells; the transient cell line
T2 sequence (P10721 26-976 limits assumed): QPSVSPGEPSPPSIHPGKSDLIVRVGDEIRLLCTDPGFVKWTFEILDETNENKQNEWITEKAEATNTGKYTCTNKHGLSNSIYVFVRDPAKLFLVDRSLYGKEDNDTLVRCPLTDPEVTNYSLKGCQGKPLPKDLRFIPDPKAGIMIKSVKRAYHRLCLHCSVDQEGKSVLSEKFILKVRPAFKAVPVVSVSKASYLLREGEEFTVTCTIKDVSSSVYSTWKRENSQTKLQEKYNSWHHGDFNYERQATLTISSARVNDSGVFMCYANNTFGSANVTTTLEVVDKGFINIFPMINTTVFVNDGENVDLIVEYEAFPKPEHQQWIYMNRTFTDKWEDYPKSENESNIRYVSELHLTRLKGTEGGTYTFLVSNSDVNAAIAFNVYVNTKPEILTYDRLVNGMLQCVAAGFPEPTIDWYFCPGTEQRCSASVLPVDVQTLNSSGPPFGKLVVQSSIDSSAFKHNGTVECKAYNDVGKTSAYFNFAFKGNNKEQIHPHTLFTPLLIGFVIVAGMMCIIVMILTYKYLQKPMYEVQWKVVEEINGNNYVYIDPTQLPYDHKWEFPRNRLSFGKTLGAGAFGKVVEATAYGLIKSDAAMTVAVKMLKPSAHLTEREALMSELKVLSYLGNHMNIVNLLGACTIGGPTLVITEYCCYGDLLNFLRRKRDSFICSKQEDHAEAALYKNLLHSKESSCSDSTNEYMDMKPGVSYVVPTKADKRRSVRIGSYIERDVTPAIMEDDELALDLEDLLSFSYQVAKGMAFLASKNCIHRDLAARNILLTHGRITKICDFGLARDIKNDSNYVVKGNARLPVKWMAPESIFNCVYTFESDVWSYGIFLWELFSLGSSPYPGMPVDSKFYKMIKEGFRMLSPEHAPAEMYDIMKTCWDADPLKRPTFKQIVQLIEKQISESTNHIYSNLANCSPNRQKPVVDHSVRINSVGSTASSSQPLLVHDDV
Method: The transient expression of CD117 was validated with a control antibody, Expi293 (FIGS. 17A-17B). Expi293, […], was transiently transfected with CD117 48-hours post-transfection. The secondary antibody used was APC Goat anti-human IgG (diluted 1:400). 100,000 cells per well were blocked with 1×PBS+0.5% BSA for 1 hour, stained with 100 μL of the primary antibody for 1 hour, and stained with the secondary antibody for one hour, all with 3× washes in between each staining.

[3] = biological target: CD117-GFP transiently overexpressed in HEK293T cells (UniProt P10721 26-976); test: cell-based or functional assay
[4] = biological target: T2, CD117 transiently expressed on Expi293 …; test: FACS, MFI expressing / parental cells
[5] = biological target: T2, CD117 transiently expressed on Expi293 …; test: FACS cell binding, Expi293 transiently expressing CD117
cyno CD117 = biological target: T3, cyno CD117 (Macaca fascicularis, UniProt A0A7N9CP24); test: Carterra SPR, cyno CD117
T3 construct: antigen of the Carterra SPR kinetics; also called cynomolgus monkey CD117
T3 sequence (A0A7N9CP24 entry or part of it): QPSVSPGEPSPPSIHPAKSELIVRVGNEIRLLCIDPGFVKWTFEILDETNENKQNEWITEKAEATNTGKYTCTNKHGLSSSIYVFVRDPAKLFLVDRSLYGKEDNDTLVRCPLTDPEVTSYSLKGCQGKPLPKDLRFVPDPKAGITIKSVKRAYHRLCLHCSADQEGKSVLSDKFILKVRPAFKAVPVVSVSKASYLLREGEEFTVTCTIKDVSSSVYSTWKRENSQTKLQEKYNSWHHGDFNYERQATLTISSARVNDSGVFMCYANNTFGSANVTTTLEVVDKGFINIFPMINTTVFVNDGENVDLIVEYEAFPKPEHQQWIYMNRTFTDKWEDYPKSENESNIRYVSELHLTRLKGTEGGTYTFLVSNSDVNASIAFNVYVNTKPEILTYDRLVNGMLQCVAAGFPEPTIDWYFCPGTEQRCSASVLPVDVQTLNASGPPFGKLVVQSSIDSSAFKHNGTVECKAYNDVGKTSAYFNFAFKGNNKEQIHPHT
Method: as §1

mouse CD117 = biological target: T4, mouse CD117 (mouse, UniProt P05532); test: Carterra SPR, mouse CD117
T4 construct: antigen of the Carterra SPR kinetics; also called murine CD117
T4 sequence (receptor, looked up): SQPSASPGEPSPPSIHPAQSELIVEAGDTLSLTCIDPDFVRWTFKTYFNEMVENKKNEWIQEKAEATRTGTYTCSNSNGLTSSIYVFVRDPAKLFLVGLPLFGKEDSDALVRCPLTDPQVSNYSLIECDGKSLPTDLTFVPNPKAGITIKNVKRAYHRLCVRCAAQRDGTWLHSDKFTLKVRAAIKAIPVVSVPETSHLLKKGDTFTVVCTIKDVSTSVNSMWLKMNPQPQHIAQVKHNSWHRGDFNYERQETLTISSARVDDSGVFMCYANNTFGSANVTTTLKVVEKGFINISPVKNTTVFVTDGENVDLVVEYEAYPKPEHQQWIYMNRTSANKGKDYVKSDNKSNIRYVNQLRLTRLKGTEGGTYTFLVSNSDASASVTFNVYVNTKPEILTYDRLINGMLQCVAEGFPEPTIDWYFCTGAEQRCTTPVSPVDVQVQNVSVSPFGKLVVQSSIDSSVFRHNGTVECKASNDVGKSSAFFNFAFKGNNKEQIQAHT
Method: as §1

[6] = biological target: Sialic acid-binding immunoglobulin-like lectin 8 (SIGLEC-8), antigen of the Carterra SPR studies (UniProt Q9NYZ4 17-363, limits assumed); test: Carterra SPR kinetics, sensorgram panel
Chain of Sialic acid-binding immunoglobulin-like lectin 8 (SIGLEC-8), antigen of the Carterra SPR studies (Q9NYZ4 17-363 limits assumed): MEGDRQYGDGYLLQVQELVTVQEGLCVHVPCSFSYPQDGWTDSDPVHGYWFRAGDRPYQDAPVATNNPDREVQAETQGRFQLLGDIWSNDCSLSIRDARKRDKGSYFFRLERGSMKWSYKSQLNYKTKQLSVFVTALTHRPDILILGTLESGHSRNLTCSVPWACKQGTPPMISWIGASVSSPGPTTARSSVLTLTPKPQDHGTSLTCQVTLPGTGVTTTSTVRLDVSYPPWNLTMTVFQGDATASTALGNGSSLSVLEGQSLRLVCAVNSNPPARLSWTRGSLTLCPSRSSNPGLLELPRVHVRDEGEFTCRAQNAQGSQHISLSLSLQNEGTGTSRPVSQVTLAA
Outline: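 Values are rate constants or dissociation constants for antibodies binding SIGLEC-8, measured by surface plasmon resonance on a Carterra instrument. The antibodies were drawn from synthetic libraries through four rounds of bead-based panning. Clones picked by clonal ELISA were expressed and purified prior to measurement.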

[7] = biological target: T5, SIGLEC-8 transiently expressed on cells (UniProt Q9NYZ4 17-499, limits assumed); test: cell binding titration, transient SIGLEC-8 line
T5 construct: whole, on cells; Two cassettes are described (P2A mVenus and direct mVenus fusion); also called the transient line; pTT5-SIGLEC-8 P2A mVenus
T5 sequence (Q9NYZ4 17-499 limits assumed): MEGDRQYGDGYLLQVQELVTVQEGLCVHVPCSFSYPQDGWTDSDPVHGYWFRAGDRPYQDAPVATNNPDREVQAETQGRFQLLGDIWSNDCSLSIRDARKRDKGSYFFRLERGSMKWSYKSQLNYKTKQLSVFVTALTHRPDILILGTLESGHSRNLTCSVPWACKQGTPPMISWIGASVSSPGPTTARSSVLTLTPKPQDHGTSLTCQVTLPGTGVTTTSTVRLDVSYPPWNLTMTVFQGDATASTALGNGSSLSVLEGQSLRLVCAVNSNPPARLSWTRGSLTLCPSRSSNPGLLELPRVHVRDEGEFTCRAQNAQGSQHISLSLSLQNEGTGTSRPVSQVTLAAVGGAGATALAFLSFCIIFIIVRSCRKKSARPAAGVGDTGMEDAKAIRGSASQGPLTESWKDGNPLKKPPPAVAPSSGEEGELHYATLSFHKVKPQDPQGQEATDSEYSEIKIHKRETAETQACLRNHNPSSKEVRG

| Binder | Kd [1] [nM] | koff [1] [s⁻¹] | kon [1] [M⁻¹ s⁻¹] | EC50 (read off the curve) [2] [nM] | IC50, inhibition of the SCF-stimulated SRF reporter signal (FFLuc/RLuc); same row prints log(IC50) -9.344 and Span -0.2266 [3] [M] | MFI Ratio [4] | EC50 [5] [nM] | Kd (cyno CD117) [nM] | koff (cyno CD117) [s⁻¹] | kon (cyno CD117) [M⁻¹ s⁻¹] | Kd (mouse CD117) [nM] | koff (mouse CD117) [s⁻¹] | kon (mouse CD117) [M⁻¹ s⁻¹] | binding result [6] | EC50 [7] [nM] |
| --- | --- | --- | --- | --- | --- | --- | --- | --- | --- | --- | --- | --- | --- | --- | --- |
| B1 | 208 | 0.136 | 655000 | ~1 | 4.53e-10 | 30.7 | 0.742 | 607 | 0.201 | 331000 | 13.7 | 0.00222 | 161000 | – | – |
| B2 | – | – | – | – | – | – | – | – | – | – | – | – | – | no binding | 904 |
